Data published in patent US20130225488A1 (CADILA HEALTHCARE, published 2013).
Where no end group is shown, it is not given here. [ ]: non-standard residue; d: D form. Aib = CC(C)(N)C(=O)O

B1: Seq. ID. No. 32: H-Aib-QGT-(α-Me-2F-Phe)-TSD-Bip(OMe)-Bip(2CF3) (peptide)
peptide: HXQGTXTSDXX
modifications: Aib at 2; α-Me-2F-Phe at 6; Bip(OMe) at 10; Bip(2CF3) at 11; C-terminal amide (CONH2)

Assays:
[1] = biological target: Human glucagon receptor (human, UniProt P47871 26-477); experiment: cell-based or functional assay
[2] = biological target: Human GLP-1 receptor (human, UniProt P43220 24-463); experiment: cell-based or functional assay
Human GLP-1 receptor, sequence (P43220 24-463): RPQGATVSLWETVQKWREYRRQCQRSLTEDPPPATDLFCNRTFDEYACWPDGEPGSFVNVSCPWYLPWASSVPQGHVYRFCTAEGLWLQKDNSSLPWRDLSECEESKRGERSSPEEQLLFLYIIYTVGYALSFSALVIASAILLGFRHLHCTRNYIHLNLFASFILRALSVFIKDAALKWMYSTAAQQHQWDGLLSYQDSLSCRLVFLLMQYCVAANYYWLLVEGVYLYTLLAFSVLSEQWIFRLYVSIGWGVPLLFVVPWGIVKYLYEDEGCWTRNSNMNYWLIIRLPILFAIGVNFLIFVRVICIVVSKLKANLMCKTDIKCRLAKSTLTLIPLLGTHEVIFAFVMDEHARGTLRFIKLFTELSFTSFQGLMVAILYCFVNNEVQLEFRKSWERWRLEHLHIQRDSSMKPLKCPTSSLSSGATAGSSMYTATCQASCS

Row | Binder | cAMP production with saturated glucagon peptide; test compound 1 nM [1] | cAMP production with saturated glucagon peptide; test compound 10 nM [1] | cAMP production with saturated glucagon peptide; test compound 100 nM [1] | cAMP production with saturated glucagon peptide; test compound 10 µM [1] | cAMP production with saturated glucagon peptide; test compound '1 nM' [1] | cAMP release, % activity with respect to control; test compound 1 nM [2] | cAMP release, % activity with respect to control; test compound 10 nM [2] | cAMP release, % activity with respect to control; test compound 100 nM [2] | cAMP release, % activity with respect to control; test compound 1 µM [2] | cAMP release, % activity with respect to control; test compound 10 µM [2]
1 | H[Aib]QGTFTSD[Bip(OMe)][Bip(2Me)] [Seq. ID. No. 13: H-Aib-QGTFTSD-Bip(OMe)-Bip(2Me)] | 10 pmol/ml/µg prt | 8 pmol/ml/µg prt | 6 pmol/ml/µg prt | 1 pmol/ml/µg prt | 4 pmol/ml/µg prt | 60% | 92% | 98% | 99% | 99%
2 | HXQGTXTSDXX (not fully specified; ACP at 2; α-Me-2F-Phe at 6; Bip(OMe) at 10; Bip(Pyr) at 11) [Seq. ID. No. 34: H-(ACP)-QGT-(α-Me-2F-Phe)-TSD-Bip(OMe)-Bip(Pyr)] | 0 pmol/ml/µg prt | 0 pmol/ml/µg prt | 0 pmol/ml/µg prt | 0 pmol/ml/µg prt | 0 pmol/ml/µg prt | 99% | 99% | 99% | 99% | 99%
3 | HXQGTXTSDXX (not fully specified; ACP at 2; α-Me-2F-Phe at 6; Bip(OMe) at 10; Bip(2F) at 11) [Seq. ID. No. 35: H-(ACP)-QGT-(α-Me-2F-Phe)-TSD-Bip(OMe)-Bip(2F)] | 5 pmol/ml/µg prt | 3 pmol/ml/µg prt | 1 pmol/ml/µg prt | 0 pmol/ml/µg prt | 0 pmol/ml/µg prt | 99% | 99% | 99% | 99% | 99%
4 | HSQGTFTSD[Bip(OMe)][Bip(2Me)]-NH2 [Seq. ID. No. 5: HSQGTFTSD-Bip(OMe)-Bip(2Me)] | 20 pmol/ml/µg prt | 18 pmol/ml/µg prt | 16 pmol/ml/µg prt | 12 pmol/ml/µg prt | 14 pmol/ml/µg prt | 38% | 78% | 86% | 95% | 98%
5 | HXQGTXTSDXX (Aib at 2; α-Me-2F-Phe at 6; Bip(OMe) at 10; Bip(Pyr) at 11) [Seq. ID. No. 30: H-Aib-QGT-(α-Me-2F-Phe)-TSD-Bip(OMe)-Bip(Pyr)] | 9 pmol/ml/µg prt | 6 pmol/ml/µg prt | 5 pmol/ml/µg prt | 0 pmol/ml/µg prt | 3 pmol/ml/µg prt | 93% | 99% | 99% | 99% | 99%
6 | HAQGTFTSD[Bip(OMe)][Bip(2Me)] (not fully specified (C-terminus); printed as HAQGTFTSD-Bip(OMe)-Bip(2Me)) [Seq. ID. No. 9: HAQGTFTSD-Bip(OMe)-Bip(2Me)] | 18 pmol/ml/µg prt | 16 pmol/ml/µg prt | 12 pmol/ml/µg prt | 6 pmol/ml/µg prt | 8 pmol/ml/µg prt | 38% | 77% | 85% | 94% | 97%
7 | HSQGTFTSD[Bip(OMe)][Bip(2F)] (not fully specified (C-terminus); printed as HSQGTFTSD-Bip(OMe)-Bip(2F)) [Seq. ID. No. 7: HSQGTFTSD-Bip(OMe)-Bip(2F)] | 6 pmol/ml/µg prt | 5 pmol/ml/µg prt | 2 pmol/ml/µg prt | 0 pmol/ml/µg prt | 0 pmol/ml/µg prt | 45% | 84% | 90% | 99% | 99%
8 | HXQGTXTSDXX (Aib at 2; α-Me-2F-Phe at 6; Bip(OMe) at 10; Bip(2Me) at 11) [Seq. ID. No. 29: H-Aib-QGT-(α-Me-2F-Phe)-TSD-Bip(OMe)-Bip(2Me)] | 10 pmol/ml/µg prt | 8 pmol/ml/µg prt | 6 pmol/ml/µg prt | 1 pmol/ml/µg prt | 4 pmol/ml/µg prt | 99% | 99% | 99% | 99% | 99%
9 | HXQGTXTSDXX (Aib at 2; α-Me-2F-Phe at 6; Bip(OMe) at 10; Bip(2F) at 11) [Seq. ID. No. 31: H-Aib-QGT-(α-Me-2F-Phe)-TSD-Bip(OMe)-Bip(2F)] | 6 pmol/ml/µg prt | 5 pmol/ml/µg prt | 2 pmol/ml/µg prt | 0 pmol/ml/µg prt | 0 pmol/ml/µg prt | 93% | 99% | 99% | 99% | 99%
10 | HSQGTFTSD[Bip(OMe)][Bip(2CF3)] (not fully specified (C-terminus); printed as HSQGTFTSD-Bip(OMe)-Bip(2CF3)) [Seq. ID. No. 8: HSQGTFTSD-Bip(OMe)-Bip(2CF3)] | 4 pmol/ml/µg prt | 2 pmol/ml/µg prt | 0 pmol/ml/µg prt | 0 pmol/ml/µg prt | 0 pmol/ml/µg prt | 40% | 81% | 87% | 95% | 98%
11 | H[Aib]QGTFTSD[Bip(OMe)][Bip(Pyr)] [Seq. ID. No. 14: H-Aib-QGTFTSD-Bip(OMe)-Bip(Pyr)] | 9 pmol/ml/µg prt | 6 pmol/ml/µg prt | 5 pmol/ml/µg prt | 0 pmol/ml/µg prt | 3 pmol/ml/µg prt | 62% | 94% | 99% | 99% | 99%
12 | H[Aib]QGTFTSD[Bip(OMe)][Bip(2F)] [Seq. ID. No. 15: H-Aib-QGTFTSD-Bip(OMe)-Bip(2F)] | 6 pmol/ml/µg prt | 5 pmol/ml/µg prt | 2 pmol/ml/µg prt | 0 pmol/ml/µg prt | 0 pmol/ml/µg prt | 66% | 97% | 99% | 99% | 99%
13 | HXQGTXTSDXX (ACP at 2; α-Me-2F-Phe at 6; Bip(OMe) at 10; Bip(2Me) at 11) [Seq. ID. No. 33: H-(ACP)-QGT-(α-Me-2F-Phe)-TSD-Bip(OMe)-Bip(2Me)] | 0 pmol/ml/µg prt | 0 pmol/ml/µg prt | 0 pmol/ml/µg prt | 0 pmol/ml/µg prt | 0 pmol/ml/µg prt | 99% | 99% | 99% | 99% | 99%
14 | HAQGTFTSD[Bip(OMe)][Bip(2F)] [Seq. ID. No. 11: HAQGTFTSD-Bip(OMe)-Bip(2F)] | 10 pmol/ml/µg prt | 8 pmol/ml/µg prt | 6 pmol/ml/µg prt | 0 pmol/ml/µg prt | 2 pmol/ml/µg prt | 51% | 86% | 91% | 99% | 99%
15 | B1 | 4 pmol/ml/µg prt | 2 pmol/ml/µg prt | 0 pmol/ml/µg prt | 0 pmol/ml/µg prt | 0 pmol/ml/µg prt | 99% | 99% | 99% | 99% | 99%
